The series relates to Escherichia coli TOP10. Briefly: shrunken log2 fold change of peptide-encoding DNA abundance (4.5 h post-induction vs induction); higher = less antimicrobial activity (less host growth inhibition). The settings on record: time post-induction: 4.5 h; library: site-saturation at positions 5, 18, 19, 20.
In the case of RRIRGRPPRLPRPRPRPRTVPRP, the “shrunken log2 fold change” value was 0.448.
The result for RRIRLRPPRLPRPRPRPINIPRP reads -0.735; that for RRIRCRPPRLPRPRPRPQRPPRP, 0.166.
The result for RRIRVRPPRLPRPRPRPNETPRP reads -0.033.
To RRIRQRPPRLPRPRPRPECAPRP belongs 0.407; to RRIRSRPPRLPRPRPRPTGYPRP, 0.0189.
As for RRIRPRPPRLPRPRPRPDGDPRP, the “shrunken log2 fold change” value turned out to be 0.152.
Turning to RRIRKRPPRLPRPRPRPIIYPRP, the “shrunken log2 fold change” value was 0.0162.
The result for RRIRERPPRLPRPRPRPRQFPRP reads -0.174.
To RRIRFRPPRLPRPRPRPSKLPRP belongs -0.42; to RRIRVRPPRLPRPRPRPESKPRP, 0.00683; to RRIRARPPRLPRPRPRPADFPRP, 0.119.
To RRIRIRPPRLPRPRPRPAMLPRP belongs -0.22; to RRIRDRPPRLPRPRPRPQISPRP, 0.141; to RRIRYRPPRLPRPRPRPFDNPRP, 0.0112.
RRIRCRPPRLPRPRPRPSTPPRP: the “shrunken log2 fold change” value is -0.382.
Regarding RRIRCRPPRLPRPRPRPYMIPRP, the “shrunken log2 fold change” value was -0.582.
For the sequence RRIRYRPPRLPRPRPRPSIKPRP, the “shrunken log2 fold change” value was -0.952.
To RRIRIRPPRLPRPRPRPQMMPRP belongs -0.622; to RRIRKRPPRLPRPRPRPLQHPRP, 0.657; to RRIRVRPPRLPRPRPRPFKAPRP, -0.316.
To RRIRYRPPRLPRPRPRPNSPPRP belongs -0.21; to RRIRVRPPRLPRPRPRPVREPRP, 0.3; to RRIRVRPPRLPRPRPRPSWHPRP, -0.00555.
The result for RRIRPRPPRLPRPRPRPTGVPRP reads 0.0313; that for RRIRDRPPRLPRPRPRPHIKPRP, -0.598; that for RRIRPRPPRLPRPRPRPFPFPRP, -0.00615.
On to RRIRSRPPRLPRPRPRPTRQPRP, for which the “shrunken log2 fold change” value is 0.215.
As for RRIRTRPPRLPRPRPRPYSWPRP, the “shrunken log2 fold change” value is -0.118.
To RRIRGRPPRLPRPRPRPQGYPRP belongs 0.045.
To RRIRARPPRLPRPRPRPKSKPRP belongs 0.257; to RRIRKRPPRLPRPRPRPEHPPRP, 0.822; to RRIRERPPRLPRPRPRPYCNPRP, -0.143.
The result for RRIRQRPPRLPRPRPRPEDLPRP reads 0.125; that for RRIRDRPPRLPRPRPRPFQLPRP, -0.0537; that for RRIRYRPPRLPRPRPRPYHEPRP, -0.194.
For RRIRLRPPRLPRPRPRPFQGPRP, the “shrunken log2 fold change” value worked out at 0.0498.
The result for RRIRTRPPRLPRPRPRPKQFPRP reads -0.103.
The result for RRIRWRPPRLPRPRPRPQTSPRP reads -0.0118.
On to RRIRTRPPRLPRPRPRPAETPRP, for which the “shrunken log2 fold change” value was 0.139.
The result for RRIRRRPPRLPRPRPRPNVKPRP reads 0.0575; that for RRIRYRPPRLPRPRPRPGVYPRP, -0.0135.
The result for RRIRGRPPRLPRPRPRPFFVPRP reads 0.246.
On to RRIRERPPRLPRPRPRPAGSPRP, for which the “shrunken log2 fold change” value is -0.202.
As for RRIRARPPRLPRPRPRPNNQPRP, the “shrunken log2 fold change” value is -0.309.
To RRIRIRPPRLPRPRPRPSVYPRP belongs -0.277; to RRIRYRPPRLPRPRPRPRMQPRP, -0.673.
To RRIRARPPRLPRPRPRPNITPRP belongs -0.0796.
The result for RRIRLRPPRLPRPRPRPDAAPRP reads 2.66; that for RRIRCRPPRLPRPRPRPQRCPRP, -0.0802.
Regarding RRIRDRPPRLPRPRPRPHPEPRP, the “shrunken log2 fold change” value was 0.004.
The result for RRIRHRPPRLPRPRPRPFDWPRP reads -0.0238; that for RRIRQRPPRLPRPRPRPNEDPRP, 0.031; that for RRIRMRPPRLPRPRPRPQLIPRP, -0.0368.
To RRIRSRPPRLPRPRPRPKPTPRP belongs 0.174; to RRIRQRPPRLPRPRPRPSPLPRP, 0.0509; to RRIRFRPPRLPRPRPRPTPTPRP, 0.471.
The result for RRIRFRPPRLPRPRPRPKFLPRP reads -0.283; that for RRIRKRPPRLPRPRPRPRWHPRP, 0.0132.
Consider RRIRFRPPRLPRPRPRPFEKPRP, for which the “shrunken log2 fold change” value is -0.0749.
The result for RRIRMRPPRLPRPRPRPGADPRP reads 2.39.
To RRIRTRPPRLPRPRPRPDIQPRP belongs -0.531; to RRIRLRPPRLPRPRPRPYTLPRP, -0.143; to RRIRWRPPRLPRPRPRPVEEPRP, 0.0996.
As for RRIRKRPPRLPRPRPRPKQKPRP, the “shrunken log2 fold change” value turned out to be 0.054.
To RRIRIRPPRLPRPRPRPVPKPRP belongs 0.0597; to RRIRARPPRLPRPRPRPSNAPRP, 0.133; to RRIRWRPPRLPRPRPRPRDFPRP, -0.031.
On to RRIRMRPPRLPRPRPRPAGKPRP, for which the “shrunken log2 fold change” value amounted to 0.461.
As for RRIRRRPPRLPRPRPRPCKWPRP, the “shrunken log2 fold change” value is -0.0414.
The result for RRIRTRPPRLPRPRPRPTENPRP reads -0.293; that for RRIRLRPPRLPRPRPRPFLPPRP, -0.171.
On to RRIRWRPPRLPRPRPRPWDNPRP, for which the “shrunken log2 fold change” value was -0.00804.
For RRIRSRPPRLPRPRPRPCWFPRP, the “shrunken log2 fold change” value is -0.0822.
The result for RRIRTRPPRLPRPRPRPDMTPRP reads -0.0206; that for RRIRIRPPRLPRPRPRPHQDPRP, -0.122; that for RRIRWRPPRLPRPRPRPEPAPRP, 1.18.
To RRIRDRPPRLPRPRPRPIQAPRP belongs 0.119.
Regarding RRIRTRPPRLPRPRPRPLPHPRP, the “shrunken log2 fold change” value is -0.00316.
On to RRIRGRPPRLPRPRPRPGDAPRP, for which the “shrunken log2 fold change” value was determined as 1.09.
To RRIRLRPPRLPRPRPRPGVLPRP belongs 0.204.
Consider RRIRMRPPRLPRPRPRPHEWPRP, for which the “shrunken log2 fold change” value was 0.624.
To RRIRSRPPRLPRPRPRPGGGPRP belongs 0.908; to RRIRTRPPRLPRPRPRPPMFPRP, -0.097; to RRIRFRPPRLPRPRPRPNNAPRP, -0.271.
For the sequence RRIRVRPPRLPRPRPRPVRPPRP, the “shrunken log2 fold change” value came out at 0.555.
Consider RRIRSRPPRLPRPRPRPQGWPRP, for which the “shrunken log2 fold change” value was found to be 0.469.
To RRIRTRPPRLPRPRPRPGTRPRP belongs 0.2; to RRIRMRPPRLPRPRPRPRAQPRP, 0.232; to RRIRIRPPRLPRPRPRPDISPRP, -0.0405.
In the case of RRIRYRPPRLPRPRPRPTDYPRP, the “shrunken log2 fold change” value is -0.746.
Consider RRIRWRPPRLPRPRPRPNKEPRP, for which the “shrunken log2 fold change” value was -0.0697.
The result for RRIRERPPRLPRPRPRPKNWPRP reads 1.59; that for RRIRLRPPRLPRPRPRPAWIPRP, 0.0321.
To RRIRRRPPRLPRPRPRPEWFPRP belongs -0.159; to RRIRKRPPRLPRPRPRPQATPRP, 0.0984; to RRIRRRPPRLPRPRPRPQHCPRP, -0.0448.
To RRIRRRPPRLPRPRPRPQKEPRP belongs 0.00366; to RRIRERPPRLPRPRPRPTFYPRP, -0.18.
Turning to RRIRCRPPRLPRPRPRPGKPPRP, the “shrunken log2 fold change” value turned out to be 0.506.
The result for RRIRGRPPRLPRPRPRPDLLPRP reads 1.51; that for RRIRHRPPRLPRPRPRPTCWPRP, -0.0322; that for RRIRTRPPRLPRPRPRPLVKPRP, -0.0793.
To RRIRGRPPRLPRPRPRPSVIPRP belongs 0.159; to RRIRHRPPRLPRPRPRPIDSPRP, -0.0116; to RRIRYRPPRLPRPRPRPCFTPRP, -0.941.
To RRIRPRPPRLPRPRPRPWWPPRP belongs 0.165.
As to RRIRARPPRLPRPRPRPLYMPRP, the “shrunken log2 fold change” value is -0.48.
To RRIRTRPPRLPRPRPRPVDTPRP belongs 0.0439; to RRIRNRPPRLPRPRPRPFLGPRP, -0.00194; to RRIRNRPPRLPRPRPRPWYSPRP, -2.32.
To RRIRWRPPRLPRPRPRPMVQPRP belongs 0.121; to RRIRDRPPRLPRPRPRPRNTPRP, -0.205.
To RRIRNRPPRLPRPRPRPMPTPRP belongs 0.257; to RRIRRRPPRLPRPRPRPTATPRP, 1.56; to RRIRHRPPRLPRPRPRPREVPRP, 0.151.
With RRIRGRPPRLPRPRPRPDEIPRP, the “shrunken log2 fold change” value is -0.0447.
To RRIRQRPPRLPRPRPRPQHDPRP belongs -0.477; to RRIRFRPPRLPRPRPRPVASPRP, 0.0266; to RRIRCRPPRLPRPRPRPKWPPRP, -0.0352.
To RRIRCRPPRLPRPRPRPPQPPRP belongs 0.858; to RRIRERPPRLPRPRPRPIMTPRP, -0.714.
The result for RRIRHRPPRLPRPRPRPEGLPRP reads 0.00161; that for RRIRVRPPRLPRPRPRPYIPPRP, -1; that for RRIRLRPPRLPRPRPRPQPYPRP, -0.487.

The values are drawn from the supplement of paper PMC9112550, “Optimization of the antimicrobial peptide Bac7 by deep mutational scanning” (BMC Biology, 2022).
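Also: peptides expressed intracellularly from a pBAD plasmid library in pooled LB shake-flask culture, induced with 0.3% L-arabinose, DNA abundance read by NGS, three biological replicates, DESeq2 with apeglm shrinkage.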
